In patent US20200181633A1:

Molecular target: trimerized [change]-Tag (A/duck/Viet Nam/TG24-01/2005 (H5N1))
Assay: cell-based or functional assay

Substance | hemagglutination unit (HAU), co-expression with H5-S-Tag in plants in vivo | hemagglutination unit (HAU), combination with H5-S-Tag in vitro
S-Protein-GCN4 (reference 2) | 2 HAU | 0 HAU
S-Protein-pII (reference 1) | 0 HAU | 0 HAU
wild type S-Protein (from UniProt P61823 47-150) | 4 HAU | 0 HAU
